# Data reported in patent publication US20050215478A1, “Amino acid sequences capable of facilitating penetration across a biological barrier” (priority 2002, published 2005).
# Values joined by “and” are separate entries in the source; they are usually repeats but may differ in a detail not shown here. Equal entries are not always repeated.
# What was measured:
# [1] = Translocation of ^125I-labeled peptide from mouse intestine loop into blood and organs (Example 1); format: in vivo, BALB/c mice; details: for recovered cpm/mouse / blood 15′, total cpm in the blood / blood 30′, total cpm in the blood / blood 60′, total cpm in the blood / blood/injected cpm (%), 15′ / blood/injected cpm (%), 30′ / blood/injected cpm (%), 60′ / recovered/injected cpm (%) / Epididymal fat, cpm recovered / brain, cpm recovered / kidney, cpm recovered / liver, cpm recovered / lungs, cpm recovered: Table 2 formulation (PE 6,200), intestinal loop, 224,160 cpm injected per mouse; for recovered cpm/mouse: blood 60′ plus organs; for blood 15′, total cpm in the blood / blood 30′, total cpm in the blood / blood 60′, total cpm in the blood: calculated from 50 μl sample assuming 2 ml blood; for Epididymal fat, cpm recovered / brain, cpm recovered / kidney, cpm recovered / liver, cpm recovered / lungs, cpm recovered: organ removed after 60 min
# Source text: The tested peptide, representing a penetrating peptide and a radio-labeled probe in a contiguous construct of SEQ ID NO 3 and SEQ ID NO 17, hereby named IBW 002 (Novetide, lot 40139-45, sequence: Ac-NYYDITLALAGICQSARLVQQLAGGGKGGK-NH2 (SEQ ID NO:22), was ^125I-labeled using the Bolton Hunter Reagent (Biochem. J. 133:529-39 (1973)). The labeled peptide was loaded on a Sephadex G10 column, washed with phosphate buffer and eluted with 3M Tiocyanate in DDW+50% n-butanol. The peak, containing 6 fractions, was kept and used for in vivo experiments.
# Four male BALB/c mice, 9-10 weeks old, were deprived of food, 18 hours prior to the experiment.
# The mice were anesthetized by i.p. injection of 0.05 ml of a mixture of 0.15 ml xylazine+0.85 ml of ketamin. A 2 cm long incision was made along the center of the abdomen, through the skin and abdominal wall. An intestine loop was gently pulled out through the incision and placed on wet gauze beside the animal. The loop remained intact through the entire procedure and was kept wet during the whole time. The tested compound was injected into the loop, 0.2 ml/ mouse, containing around 200,000 cpm, using a 26G needle. Fifteen minutes post injection the tip of the tail was cut and a 50 μl blood sample was drawn into a glass capillary. This was repeated 30 and 60 minutes post injection. The animals were subsequently sacrificed. The following organs were removed: epididymal fat, kidneys, liver, lungs and brain. Radioactivity in each organ and in blood samples was counted. A 5 μl sample of the injected solution was counted to determine the total injected cpm per mouse.
# The total radioactive labeling injected per mouse was 224,160 cpm. Total cpm in the blood was calculated based on the 50 μl blood sample drawn out at different time points post injection, in the assumption that total blood volume of each mouse is 2 ml.
# [2] = Relative potency of penetrating peptides as tested in mice (Example 3); format: in vivo; details: IBW-002 = 100
# Source text: Relative Potency of Penetrating Peptides as Tested in Mice.
# [3] = individual mice, listed as 125I-IBW-002
substance,measurement,setting,value
"Ac-NYYDITLALAGICQSARLVQQLAGGGKGGK-NH2 (Ac-NYYDITLALAGICQSARLVQQLAGGGKGGK-NH2; also: 125I label) [IBW-002, ^125I-labeled using the Bolton Hunter Reagent for in vivo tests]",recovered cpm/mouse,[1]; [3],"41,440 cpm and 66,525 cpm and 61,642 cpm and 82,325 cpm"
same,recovered cpm/mouse,[1]; mean of 4 mice,"62,983 cpm"
same,"blood 15′, total cpm in the blood",[1]; [3],"37,080 cpm and 68,960 cpm and 62,280 cpm and 80,280 cpm"
same,"blood 30′, total cpm in the blood",[1]; [3],"36,120 cpm and 60,680 cpm and 52,320 cpm and 70,840 cpm"
same,"blood 60′, total cpm in the blood",[1]; [3],"29,720 cpm and 47,800 cpm and 44,000 cpm and 59,720 cpm"
same,"blood 15′, total cpm in the blood",[1]; mean of 4 mice,"62,150 cpm"
same,"blood 30′, total cpm in the blood",[1]; mean of 4 mice,"54,990 cpm"
same,"blood 60′, total cpm in the blood",[1]; mean of 4 mice,"45,310 cpm"
same,"blood/injected cpm (%), 15′",[1]; [3],16.54% and 30.76% and 27.78% and 35.81%
same,"blood/injected cpm (%), 30′",[1]; [3],16.11% and 27.07% and 23.34% and 31.60%
same,"blood/injected cpm (%), 60′",[1]; [3],13.26% and 21.32% and 19.63% and 26.64%
same,recovered/injected cpm (%),[1]; [3],18.49% and 29.68% and 27.50% and 36.73%
same,"blood/injected cpm (%), 15′",[1]; mean of 4 mice,27.73%
same,"blood/injected cpm (%), 30′",[1]; mean of 4 mice,24.53%
same,"blood/injected cpm (%), 60′",[1]; mean of 4 mice,20.21%
same,recovered/injected cpm (%),[1]; mean of 4 mice,28.10%
same,"Epididymal fat, cpm recovered",[1]; [3],"547 cpm and 869 cpm and 973 cpm and 1,174 cpm"
same,"brain, cpm recovered",[1]; [3],138 cpm and 190 cpm and 202 cpm and 301 cpm
same,"kidney, cpm recovered",[1]; [3],"4,068 cpm and 6,614 cpm and 6,400 cpm and 7,650 cpm"
same,"liver, cpm recovered",[1]; [3],"6,102 cpm and 9,709 cpm and 8,718 cpm and 11,674 cpm"
same,"lungs, cpm recovered",[1]; [3],"865 cpm and 1,343 cpm and 1,349 cpm and 1,806 cpm"
same,"Epididymal fat, cpm recovered",[1]; mean of 4 mice,891 cpm
same,"brain, cpm recovered",[1]; mean of 4 mice,208 cpm
same,"kidney, cpm recovered",[1]; mean of 4 mice,"6,183 cpm"
same,"liver, cpm recovered",[1]; mean of 4 mice,"9,051 cpm"
same,"lungs, cpm recovered",[1]; mean of 4 mice,"1,341 cpm"
same,time at which the relative amount in the blood peaked,"[1]; post-intestinal administration, blood sampled at 15, 30 and 60 min, Table 2 formulation",15 min
same,Relative potency (%),[2],100%
